The target in assay [1] is T1, HLA-A*02:01 (Homo sapiens, UniProt P04439, D140Y/D185E/D98H/E176V/E277Q/G131W/G231S/I119V/I121R/I166T/I218V/L300P/L318F/N151K/N90K/P208A/P217A/Q86G/Q94H/R138H/R169H/T345S). The assay is described as follows: Peptide switching (exchange) on peptide-HLA-A*02:01 complex, anti-DNP antibody flow cytometry. The following applies: 20 micromolar peptide, 1 micromolar HLA-A*02:01 with DNP-labelled initial peptide LMYAKRAFV, 1 mM Glycl-Methionine, room temperature 4 hours; relative to control peptide […] set as 100%. Format: binding. As for the experimental part: To test binding of Immunogenic and Non-Immunogenic peptides to an MHC Class I complex, a peptide-HLA-A*02:01 complex with an initial peptide LMYAKRAFV (SEQ ID NO: 4) in the peptide binding groove was purchased. The initial peptide included a dinitrophenyl (DNP) moiety conjugated to the lysine at position 5. Two peptide antigens were then tested for their ability to bind to the MHC Class I complex: SLYSYFQKV (SEQ ID NO: 5) derived from SLC45A2 and SLLPIMwQLY (SEQ ID NO: 6) derived from TCL1. The peptides were resuspended in DMSO to 5 mg/mL. The peptides were then further diluted ten-fold in PBS. […]
Samples of unswitched peptide-MHC and switched peptide-MHC were then captured on Streptavidin-coated DynaBeads (ThermoFisher). […] The peptide-MHC beads were then stored at 4° C. until they were analyzed for peptide exchange.
To quantify peptide exchange, a FITC-conjugated anti-DNP antibody specific for the DNP-conjugated initial peptide was added to a sample of each captured peptide-MHC. […] The staining for pre-assembled peptide and intact pHLA complexes were detected by Flow Cytometry on a FACSCelesta with High-Throughput Sampler (BD Biosciences). […] Approximately 5,000 bead events were recorded for each sample. The Median Fluorescence Intensity (MFI) in the APC and FITC channels of each sample was then recorded. […]

For assay [2], the target named is T1, HLA-A*02:01. Description: Peptide binding and stability of pMHC complexes under culture conditions (W6/32 antibody, flow cytometry). The following applies: pMHC on Streptavidin DynaBeads in T Cell Culture Media at 37° C.; exponential decay fit of APC MFI. The procedure:
To assess the stability of the pMHC Class I-peptide antigen complexes under the conditions that are used to culture T Cells, pMHC Class I complexes were first bound to beads. Biotinylated HLA-A*02:01 complexes loaded with either SLYSYFQKV (SEQ ID NO: 5) or SLLPIMwQLY (SEQ ID NO: 6) peptides were diluted to 0.83 micrograms/mL in Assay Buffer (PBS with 2 mM EDTA and 0.1% Bovine Serum Albumin). To 0.6 mL of the pMHC solutions in microcentrifuge tubes, 10^7 Streptavidin-coated DynaBeads (M-280, ThermoFisher) were added. The beads were mixed in the pMHC solution for 4 minutes at 2,000 rpm on a ThermoMixer (Eppendorf). The pMHC-beads were then captured on a magnetic rack, and the solution containing unbound pMHC removed by aspiration. 1 mL of Assay Buffer was added to the tubes, and then aspirated. The beads were then resuspended in 0.1 mL of Assay Buffer. The beads were then stored at 4° C. until use. […]
Antibody binding to the beads was then detected on a FACSCelesta with High-Throughput Sampler (BD Biosciences). […] Approximately 25,000 bead events were recorded for each sample. The Median Fluorescence Intensity (MFI) in the APC channel for the pHLA-beads in each sample was then recorded. […] The half-lives for the pHLA complexes were then calculated from the fitted decay constant.

Square brackets hold non-standard residues; d marks the D form. Ends that are not written are not given here.

This note sets out measurements from patent US20200139362A1, “Proto-Antigen-Presenting Synthetic Surfaces, Activated T Cells, and Uses Thereof” (Berkeley Lights, Inc., priority 2018, published 2020).

Turning to “SLYSYFQKV (SLC45A2-derived peptide) [immunogenic peptide antigen derived from SLC45A2]”, the percent peptide switching result with HLA-A*02:01 [1] is on record as “about 99%”. The “half-life of peptide-HLA-A*02:01 complex” value in the assay with HLA-A*02:01 [2] was “about 17 hours”.

In the case of “SLLPIMwQLY (SLLPIM[dW]QLY) [TCL1-derived peptide, non-immunogenic peptide antigen derived from TCL1]”, the percent peptide switching result with HLA-A*02:01 [1] is given as “about 90%”. The “half-life of peptide-HLA-A*02:01 complex” value with HLA-A*02:01 [2] is reported as “about 0.5 hours”.
